According to US20040203002 (published 2004):
Where a chain is given by its changes, count along the chain named.

Assays:
[1] = target: T1, Zif268 wildtype (three zinc fingers, phage displayed) (Mus musculus, UniProt P08046 P08046:333-421); assay: ELONA; apparent Kd, phage ELISA, PBS/Zn, RT
[2] = target: T1, Zif268 wildtype (three zinc fingers, …); assay: apparent Kd interpolated from microarray signal 0.150
[3] = target: T1, Zif268 wildtype (three zinc fingers, …); assay: apparent Kd interpolated from microarray signal 0.372
[4] = target: T1, Zif268 wildtype (three zinc fingers, …); assay: apparent Kd interpolated from microarray signal 0.085
[5] = target: T1, Zif268 wildtype (three zinc fingers, …); assay: apparent Kd interpolated from microarray signal 0.320
[6] = target: T1, Zif268 wildtype (three zinc fingers, …); assay: ELONA; negative control; apparent Kd; microarray signal 0.052

B1: Zif268 site TAG (dsDNA)
DNA 1: TATATAGCGTAGGCGTATATATCAAGTCAATCGGTCC
DNA 2: GGACCGATTGACTTGATATATACGCCTACGCTATATA
modifications: [none]
Kd [1]: 6.7 nM

B2: Zif268 site GAG (dsDNA)
DNA 1: B1 DNA 1 with T10G
DNA 2: B1 DNA 2 with A28C
modifications: [none]
Kd [2]: 75 nM

B3: Zif268 site GGG (dsDNA)
DNA 1: B1 DNA 1 with T10G, A11G
DNA 2: B1 DNA 2 with T27C, A28C
modifications: [none]
Kd [3]: 28 nM

B4: Zif268 site CAG (dsDNA)
DNA 1: B1 DNA 1 with T10C
DNA 2: B1 DNA 2 with A28G
modifications: [none]
Kd [1]: 380 nM

B5: Zif268 site TCG (dsDNA)
DNA 1: B1 DNA 1 with A11C
DNA 2: B1 DNA 2 with T27G
modifications: [none]
Kd [4]: 180 nM

B6: Zif268 site CGG (dsDNA)
DNA 1: B1 DNA 1 with T10C, A11G
DNA 2: B1 DNA 2 with T27C, A28G
modifications: [none]
Kd [5]: 35 nM

B7: Zif268 site TTG (dsDNA)
DNA 1: B1 DNA 1 with A11T
DNA 2: B1 DNA 2 with T27A
modifications: [none]
Kd [1]: 71 nM

B8: Zif268 site AGG (dsDNA)
DNA 1: B1 DNA 1 with T10A, A11G
DNA 2: B1 DNA 2 with T27C, A28T
modifications: [none]
Kd [1]: 54 nM

B9: Zif268 site AAA (dsDNA)
DNA 1: B1 DNA 1 with T10A, G12A
DNA 2: B1 DNA 2 with C26T, A28T
modifications: [none]
Kd [6]: > 5000 nM
